Source: the Human Domainome abundance scans (Beltran et al. 2025)
± gives the uncertainty stated by the source.

B1: Serine/threonine-protein kinase A-Raf, residues 21 to 89; numbered along this chain, P10398 (parent)
chain: VKVYLPNKQRTVVTVRDGMSVYDSLDKALKVRGLNQDCCVVYRLIKGRKTVTAWDTAIAPLDGEELIVE

Variants of: B1
Experiment: abundance fitness (aPCA) (normalised: wild type 0, dead -1); higher = more abundant; growth selection in yeast, the domain comes from the species named
Details: Homo sapiens

**Q.** For VKVYLPKKQRTVVTVRDGMSVYDSLDKALKVRGLNQDCCVVYRLIKGRKTVTAWDTAIAPLDGEELIVE [N7K], which abundance fitness is on record?
**A.** -0.343 ± 0.055

**Q.** Which abundance fitness does the source give for VKVYLPNKQNTVVTVRDGMSVYDSLDKALKVRGLNQDCCVVYRLIKGRKTVTAWDTAIAPLDGEELIVE [R10N] here?
**A.** 0.042 ± 0.12

**Q.** Which abundance fitness does the source give for VKVYLPNKQRTVVTVRDGMSVYDSLDKALKVRGLNQDCCVVYRLIQGRKTVTAWDTAIAPLDGEELIVE [K46Q] here?
**A.** -0.009 ± 0.067

**Q.** With VKVYLPNKQRTVVTVRDGMSVYDSLDKALKVRGLNQDCCVVYRLIDGRKTVTAWDTAIAPLDGEELIVE [K46D] as the variant, how does the abundance fitness read?
**A.** 0.199 ± 0.2

**Q.** With VKVYLPNKQRTVVTVRDGMSVYDSLDKALKVRGLNQDCCVVYRLIAGRKTVTAWDTAIAPLDGEELIVE [K46A] as the variant, how does the abundance fitness read?
**A.** 0.001 ± 0.037

**Q.** For VKGYLPNKQRTVVTVRDGMSVYDSLDKALKVRGLNQDCCVVYRLIKGRKTVTAWDTAIAPLDGEELIVE [V3G], which abundance fitness is on record?
**A.** -0.966 ± 0.18

**Q.** For VKCYLPNKQRTVVTVRDGMSVYDSLDKALKVRGLNQDCCVVYRLIKGRKTVTAWDTAIAPLDGEELIVE [V3C], which abundance fitness is on record?
**A.** -0.274 ± 0.12

**Q.** With VKVYLPNKQRTVVTVRDGMSVYTSLDKALKVRGLNQDCCVVYRLIKGRKTVTAWDTAIAPLDGEELIVE [D23T] as the variant, how does the abundance fitness read?
**A.** -0.087 ± 0.055

**Q.** For VKVYLPNKQRTVETVRDGMSVYDSLDKALKVRGLNQDCCVVYRLIKGRKTVTAWDTAIAPLDGEELIVE [V13E], which abundance fitness is on record?
**A.** -0.857 ± 0.3

**Q.** With VKVYLPNKQRTVCTVRDGMSVYDSLDKALKVRGLNQDCCVVYRLIKGRKTVTAWDTAIAPLDGEELIVE [V13C] as the variant, how does the abundance fitness read?
**A.** -0.206 ± 0.074

**Q.** Which abundance fitness does the source give for VKVYLPNKQRTVMTVRDGMSVYDSLDKALKVRGLNQDCCVVYRLIKGRKTVTAWDTAIAPLDGEELIVE [V13M] here?
**A.** -0.892 ± 0.19

**Q.** Which abundance fitness does the source give for VKVYLPNKMRTVVTVRDGMSVYDSLDKALKVRGLNQDCCVVYRLIKGRKTVTAWDTAIAPLDGEELIVE [Q9M] here?
**A.** -0.149 ± 0.082

**Q.** For VKVYLPNKERTVVTVRDGMSVYDSLDKALKVRGLNQDCCVVYRLIKGRKTVTAWDTAIAPLDGEELIVE [Q9E], which abundance fitness is on record?
**A.** -0.008 ± 0.064

**Q.** Which abundance fitness does the source give for VKVYLPNKQRQVVTVRDGMSVYDSLDKALKVRGLNQDCCVVYRLIKGRKTVTAWDTAIAPLDGEELIVE [T11Q] here?
**A.** -0.1 ± 0.057

**Q.** For VKVYLPNKQRLVVTVRDGMSVYDSLDKALKVRGLNQDCCVVYRLIKGRKTVTAWDTAIAPLDGEELIVE [T11L], which abundance fitness is on record?
**A.** 0.052 ± 0.047

**Q.** For VKVYLPNKQRTVVTVRDGMSVYDSLDKALKVRGLNQDCCVVYRLIKGRKTVTAWDTAITPLDGEELIVE [A59T], which abundance fitness is on record?
**A.** 0.054 ± 0.058

**Q.** With VKVYLPNKQRTVVTVRDGMSVYDSLDKALKVRGLNQDCCVVYRLIKGRKTVTAWDTAISPLDGEELIVE [A59S] as the variant, how does the abundance fitness read?
**A.** 0.002 ± 0.027

**Q.** With VKVYLPNKQRTVVTVRDGMSVYDSLDKALKVRGLNQDCCVVYRLIKGRKSVTAWDTAIAPLDGEELIVE [T50S] as the variant, how does the abundance fitness read?
**A.** -0.402 ± 0.18

**Q.** Which abundance fitness does the source give for VKVYLPNKQRTVVTVRDGMSVYDSLDKALKVRGLNQDCCVVYRLIKGRKVVTAWDTAIAPLDGEELIVE [T50V] here?
**A.** 0.362 ± 0.18

**Q.** For VKVYLPNKQRTVVTVRDGMSVYDSLDKALKVRGLNQDCCVVYRLIKGRKPVTAWDTAIAPLDGEELIVE [T50P], which abundance fitness is on record?
**A.** -0.715 ± 0.21

**Q.** Which abundance fitness does the source give for VKVYLPNKQRTVVTVRDGMSVYDSLDKALKVRGLNQDCCVVYTLIKGRKTVTAWDTAIAPLDGEELIVE [R43T] here?
**A.** -0.225 ± 0.067

**Q.** Which abundance fitness does the source give for VKVYLPNKQRTVVTVRDGMSVYDSLDKALKVRGLNQDCCVVYNLIKGRKTVTAWDTAIAPLDGEELIVE [R43N] here?
**A.** -0.602 ± 0.43

**Q.** With VKVYLPNKQRTVVTVRDGMSVYDSLDKASKVRGLNQDCCVVYRLIKGRKTVTAWDTAIAPLDGEELIVE [L29S] as the variant, how does the abundance fitness read?
**A.** -0.558 ± 0.072

**Q.** For VKVYLPNKQRTVVTVRDGMSVYDSLDKAGKVRGLNQDCCVVYRLIKGRKTVTAWDTAIAPLDGEELIVE [L29G], which abundance fitness is on record?
**A.** -0.941 ± 0.11

**Q.** With VKVYLPNKQRTVVTVRDGMSVYDSLDKALKVRGLNQDNCVVYRLIKGRKTVTAWDTAIAPLDGEELIVE [C38N] as the variant, how does the abundance fitness read?
**A.** 0.141 ± 0.3

**Q.** For VKVYLPNKQRTVVTVRDGMSVYDSLDKALKVRGLNQDCCCVYRLIKGRKTVTAWDTAIAPLDGEELIVE [V40C], which abundance fitness is on record?
**A.** -0.087 ± 0.072

**Q.** For VKVYLPNKQRTVVTVRDGMSVYDSLDKALKVRGLNQDCCVVYRLIKGRKTVTAWDTAIAPLDDEELIVE [G63D], which abundance fitness is on record?
**A.** -0.187 ± 0.16

**Q.** Which abundance fitness does the source give for VKVYLPNKQRTVVTVRDGMSVYDSLLKALKVRGLNQDCCVVYRLIKGRKTVTAWDTAIAPLDGEELIVE [D26L] here?
**A.** -0.137 ± 0.053

**Q.** Which abundance fitness does the source give for VKVYLPNKQRTVVTVRDGMSVYDSLHKALKVRGLNQDCCVVYRLIKGRKTVTAWDTAIAPLDGEELIVE [D26H] here?
**A.** -0.096 ± 0.23

**Q.** Which abundance fitness does the source give for VKVYLPNKQRTVVTVRDGMSVYDSLKKALKVRGLNQDCCVVYRLIKGRKTVTAWDTAIAPLDGEELIVE [D26K] here?
**A.** -0.076 ± 0.083

**Q.** For VKVYLPNKQRTVVTVRDGMQVYDSLDKALKVRGLNQDCCVVYRLIKGRKTVTAWDTAIAPLDGEELIVE [S20Q], which abundance fitness is on record?
**A.** -0.799 ± 0.15

**Q.** For VKVYLPNKQRTVVTVRDGMYVYDSLDKALKVRGLNQDCCVVYRLIKGRKTVTAWDTAIAPLDGEELIVE [S20Y], which abundance fitness is on record?
**A.** -0.623 ± 0.23

**Q.** Which abundance fitness does the source give for VKVYLPNKQRTVVTVRDGMSVYDSLDKALKVRGLNQDCCVVYRLIKDRKTVTAWDTAIAPLDGEELIVE [G47D] here?
**A.** -0.71 ± 0.21

**Q.** With VKVYLPNKQRTVVTVRDGMSVYDSLDKALKVRGLNQDCCVVARLIKGRKTVTAWDTAIAPLDGEELIVE [Y42A] as the variant, how does the abundance fitness read?
**A.** -1.05 ± 0.22

**Q.** With VKVYLPNKQRTVVTVRDGMSVYDSLDKALKVRGLNQDCCVVDRLIKGRKTVTAWDTAIAPLDGEELIVE [Y42D] as the variant, how does the abundance fitness read?
**A.** -0.928 ± 0.21

**Q.** Which abundance fitness does the source give for VKVYLPNKQRTVVTVRDGMSVYDSLDKALKVRGLNQDCCVVRRLIKGRKTVTAWDTAIAPLDGEELIVE [Y42R] here?
**A.** -1.15 ± 0.23

**Q.** With VKVYLPNKQRTVVTVRDGMSVYDSEDKALKVRGLNQDCCVVYRLIKGRKTVTAWDTAIAPLDGEELIVE [L25E] as the variant, how does the abundance fitness read?
**A.** -0.944 ± 0.18

**Q.** With VKVYLPNKQRTVVTVRDGMSVYDSLDKALKVDGLNQDCCVVYRLIKGRKTVTAWDTAIAPLDGEELIVE [R32D] as the variant, how does the abundance fitness read?
**A.** -0.487 ± 0.34

**Q.** For VKVYLPNKQRTVVTVRDGMSVYDSLDKALKVMGLNQDCCVVYRLIKGRKTVTAWDTAIAPLDGEELIVE [R32M], which abundance fitness is on record?
**A.** 0.12 ± 0.06
